First the molecules themselves.
B1: HDV Ribozyme (parent)
chain: GGCCGGCAUGGUCCCAGCCUCCUCGCUGGCGCCGGCUGGGCAACAUUCCGAGGGGACCGUCCCCUCGGUAAUGGCGAAUGGGACCCA

The variants in this data set derive from B1. Description: self-cleavage, relative activity (ratio to wild type); higher = more cleavage; co-transcriptional.
As for G50U A71C, the self-cleavage was 0.435. Consider G2U U23C, for which the self-cleavage came to 0.112. As for G25C G35C, the figure is 0.115; as for G76C C86A, 0.854.

For A8U C63A, the self-cleavage amounted to 0.415. As for C14G C58U, the figure is 0.646; as for G34A A71C, 0.0604; as for G35A U72A, 0.208. For U27G A78G, the self-cleavage stood at 0.532.

For G28C G73U, the self-cleavage amounted to 0.154. As for G5A U69A, the figure is 0.0519. Turning to C3U G50A, the self-cleavage is 0.682. For G82U C85A the value was 0.256; for G39C C58G, 0.277; for C44A C62G, 0.162. As for C3U G28A, the self-cleavage stood at 0.0294. For C4U G74C the value was 0.0791; for C24A U72C, 0.253. For C44G A78C the value was 0.193; for C41G A43C, 0.308; for A16U C58U, 0.962. Take C13A A56U: the self-cleavage turned out to be 0.312. G5C G68C: the self-cleavage came to 0.

Take C26G A77G: the self-cleavage was determined as 0.929. For C18A G81C the value was 0.163. For C24G G40C the value was 0.0222. As for G1C C58G, the figure is 0.199; as for G10U C15U, 0.445. As for C24G C36U, the self-cleavage is 0.0627. As for C19A G28C, the figure is 0.0462. For C22U A87C the value was 0.665; for C44U U79C, 0.269; for G54C C57A, 0.937. As for C85A A87C, the figure is 0.862.

Consider C62U G67A, for which the self-cleavage turned out to be 1.12. As for C62A A87U, the figure is 0.984. For G10U C41G the value was 0.619; for C49A C85U, 0.811. For the variant C26A C44A, the self-cleavage amounted to 0.914. C7A U20G: the self-cleavage was 0.312. As for C44A G81U, the figure is 0.203; as for C49U C61A, 0.76; as for G34U G55C, 0.102.

Consider G50A A56U, for which the self-cleavage is 1.06. For G2C G74U, the self-cleavage worked out at 0.1.

Regarding G28U G34C, the self-cleavage was 0.101. As for C14U C63A, the figure is 0.957; as for C4G U72A, 0.0437; as for C36A C41A, 0.102. As for C24U G53U, the figure is 0.802; as for C3A G73U, 0.111. Regarding C14G A71C, the self-cleavage is 0.208.

Regarding G29C G34U, the self-cleavage stood at 0.181. Regarding G38C G52U, the self-cleavage turned out to be 0.249. For C13G the value was 0.078; for U37G G82C, 0.128. Consider U20C C64A, for which the self-cleavage stood at 0.145. For G59C U60G the value was 1.16; for A56C C84U, 0.718. With C3A C49A, the self-cleavage was 0.554. For G53A C57A the value was 0.866; for C14G A45C, 0.434. Consider G25A C49G, for which the self-cleavage was 0.0755. As for A42C G67A, the figure is 0.249; as for C7U U23C, 0.516; as for G17U U69G, 0.534.

Regarding C44U A51G, the self-cleavage was determined as 1.04. For C36U A51U the value was 0.743; for U9G C66U, 0.727; for G2C G11A, 0.0455. For the variant A16C A56C, the self-cleavage was 0.639. For G29U G38U the value was 0.141; for G54C G68U, 0.616; for C36A C84A, 0.192. As for G39U A78C, the figure is 0.13.

As for G2A G17A, the self-cleavage amounted to 0.0604. For G2A G17C the value was 0; for U65G G73U, 0.47; for C3G, 0.753. C4U C57U: the self-cleavage was 0.656. For C15A C22A the value was 0.111; for C3G A45U, 0.299; for C13A U27A, 0.831. For A51U G73C the value was 0.415.

On to C61U A77U, for which the self-cleavage was determined as 0.475.

Regarding U27G C30A, the self-cleavage was determined as 0.458. For C21A A56C, the self-cleavage was 0.0898. As for C19G A45C, the figure is 0.0583; as for G39C A43C, 0.138; as for G50C U79C, 0.554. For G5A C61U the value was 0.0326; for A83U C85G, 0.208. As for U37G A70G, the figure is 0; as for C64G U65G, 0.943. G39U G55A: the self-cleavage turned out to be 0.831. As for U20G C41G, the figure is 0.166.

In the case of A77U G80C, the self-cleavage turned out to be 0.136. With C61U U69C, the self-cleavage came out at 0.972. As for C63G C66G, the figure is 0.201; as for G38U U46G, 0.0755; as for G68U A87G, 0.908. As for C41G A77U, the figure is 0.185; as for G38U G52A, 0.305.

For C19G G29U, the self-cleavage was 0. For C18A G40U the value was 0.0631. As for U23G G81U, the figure is 0.117.

In the case of G52A G53C, the self-cleavage turned out to be 0.743. For U47C C75U the value was 0.0791; for A8U A77U, 0.0898; for G17A C57A, 0.965. As for G28C G52U, the figure is 0.0831; as for C36U C62G, 0.222. For G1C C62G the value was 0.0831. On to C3U A43G, for which the self-cleavage came out at 0.342. For C18U G76A the value was 0.728; for G34U G39A, 0.174; for C32U A70G, 0.85. In the case of C4G C48A, the self-cleavage stood at 0.59.

U12G G31C: the self-cleavage is 0.138. As to A16G G34C, the self-cleavage worked out at 0.0536.

Turning to C58A C62U, the self-cleavage worked out at 1.08. On to A56C U60G, for which the self-cleavage turned out to be 0.68. Take C36A A87U: the self-cleavage amounted to 0.0587.

As to C32G U37A, the self-cleavage was 0.293. For A8G A78C the value was 0.166; for C19U C41U, 0.173; for U23C C58U, 0.928.

Take G11A C24U: the self-cleavage came out at 0.194.

On to G55A G59A, for which the self-cleavage came to 1.13. As for G2U G76U, the figure is 0.0762; as for G68C G80U, 0.322. As for U23G A43G, the self-cleavage is 0.138. For A45U U60A the value was 0.723; for C22A C48A, 0.201. As for G5C C36G, the self-cleavage amounted to 0.0978. For C44G U72G the value was 0.446; for G6U G74C, 0.0449. In the case of G38U C49G, the self-cleavage is 0.0739. For G52A A70U the value was 0.858; for G59U C86A, 0.855; for C18U A77U, 0.0678. For A42U G59C the value was 0.422; for U65G C84G, 0.569. Turning to U9G G28C, the self-cleavage turned out to be 0.222. As for U23A G40C, the figure is 0.181; as for U23C C48G, 1.05; as for C22A C64U, 0.32.

Regarding U60G A87C, the self-cleavage was determined as 0.831. As for G10A C13G, the figure is 0.104; as for C58U C66A, 1.22; as for U27C C41U, 0.604. On to U46A G54C, for which the self-cleavage turned out to be 0.706. For C66G U72G the value was 0.266; for C57U U79G, 0.73; for A45C A78G, 0.178. As for A43C C62A, the figure is 0.415; as for U37C A77G, 1.03. As for G50U G76A, the figure is 1.05; as for G50C C75G, 0. For the variant A45G C49A, the self-cleavage came out at 0.872. As for G54U C75U, the figure is 0.189; as for C30A A83G, 0.127; as for U12A G67A, 0.383. As for G5C U27A, the figure is 0.227. Regarding C63G G67C, the self-cleavage stood at 0.342. As for C21U C85A, the figure is 0.366; as for U47A G54U, 0.91.
